Results from patent US20240189230A1, “PALM FOR THE TREATMENT OF CHEMOTHERAPY-INDUCED PERIPHERAL NEUROPATHY INCIDENTAL TO THE TREATMENT OF CANCER” (Peptinovo Biopharma Inc., priority 2019, published 2024).
Non-standard residues stand in square brackets, D forms with d. No end group written: not given here. Aib = CC(C)(N)C(=O)O

How the values were obtained:
SR-BI = assay: DiI uptake from DiI-labeled PALM or HDL by BHK(SR-BI) cells, SR-BI induced or un-induced; assay type: cell-based, human; settings: for Un-induced DiI Uptake: un-induced BHK(SR-BI) cells
Procedure: A 40 μl aliquot of 10 mM peptide was combined with 56 μl of 20 mM POPC. 24 μl 20 mM SM(egg) and 16 μl 2.5 mM DiI in a small glass vial. The peptide and lipid solutions were prepared in 80% TBA/20% water. The DiI stock was prepared in 92% TBA/8% water. The combined solution was lyophilized and the resultant cake was rehydrated by addition of 0.2 ml of Dulbecco's phosphate buffered saline. The solution was briefly swirled, water bath sonicated (for approx. 15 sec.) and placed in a 50° C. heating block for 20 minutes.
SR-BI interaction studies are done with BHK(SR-BI) cells stably transfected with an inducible human SR-BI gene by means of the GeneSwitch™ System (Invitrogen) (Vickers et al. (2011) Nat. Cell Biol. 13:423-433) . The cells were plated (96-well plate) (8000 cells/well) in growth medium (Dulbecco's modified Eagle medium containing 10% fetal bovine serum) containing 200 μg/ml each of zeocin and hygromycin. After 24 hours incubation, the growth medium was removed and replaced with 0.2% bovine serum albumin in Dulbecco's modified Eagle medium. The medium of cells to be induced for SR-BI expression also contained 10 nM mifepristone, added from a DMSO stock solution. DMSO alone was added to the medium of uninduced cells. The induction medium was removed after 24 hours and replaced with medium containing DiI-labeled PALM (32 μg peptide/ml) or DiI-labeled HDL (19 μg protein/mL) (Kalen Biomedical, Montgomery Village, MD). The test media were prepared by diluting an aliquot of DiI-labeled PALM (Example 10) or the DiI-labeled HDL in 0.2% bovine serum albumin in Dulbecco's modified Eagle medium. The solutions were passed through 0.2 μm pore size, polyethersulfone, sterilization filters before use. The cells were incubated for 4 hours. Next, the cells were washed 3 times with 0.1% albumin in Dulbecco's phosphate buffered saline (with calcium and magnesium). The last wash was replaced with 200 μl/well of t-butanol/water (95%/5%). The covered plate was left to stand at room temp (20-21° C.) for 30 min with occasional shaking. The fluorescence in each well was detected at 520 nm excitation and 580 nm emission with a 550 nm cutoff filter on a […] Gemini fluorescence plate reader (FIG. 9).

[1] = target: human scavenger receptor class B, type 1 (SR-BI) (human) (UniProt Q8WTV0); assay: cell-based or functional assay
[2] = Stability of peptide/phospholipid complexes by visual inspection; assay type: physicochemical; settings: SM, PC/SM 70/30, SEQ ID No. 25: peptide to phospholipids 1/4
Procedure: Separate stock solutions of peptide and phospholipids were prepared in a solvent mixture composed of 80% tert-butyl alcohol (TBA) and 20% water to obtain separate solutions of 10 mM peptide, 20 mM 1,2-dioleoyl-sn-glycero-3-phosphocholine (DOPC) or 20 mM 1-palmitoyl-2-oleoyl-phosphatidylcholine (POPC) and 20 mM egg SM. […] The solutions were combined in a 1.5 ml glass vial, frozen (−70° C.), and lyophilized at −5 to −10° C. overnight. The resultant lyophilized cakes were rehydrated by addition of Dulbecco's phosphate buffered saline followed by gentle swirling of the contents. Formation of PALM was completed by incubating the PALM solution at 50° C. for 10 minutes. […] The qualities of the PALM preparations were evident in their appearance. A visually clear preparation indicated any nanoparticles that had formed were less than approximately 40 nm diameter, based on the Tyndall effect.

[3] = target: T1, human scavenger receptor class B, type 1 (SR-BI) (human, UniProt Q8WTV0 1-552); assay: cell-based or functional assay
T1 sequence (looked up): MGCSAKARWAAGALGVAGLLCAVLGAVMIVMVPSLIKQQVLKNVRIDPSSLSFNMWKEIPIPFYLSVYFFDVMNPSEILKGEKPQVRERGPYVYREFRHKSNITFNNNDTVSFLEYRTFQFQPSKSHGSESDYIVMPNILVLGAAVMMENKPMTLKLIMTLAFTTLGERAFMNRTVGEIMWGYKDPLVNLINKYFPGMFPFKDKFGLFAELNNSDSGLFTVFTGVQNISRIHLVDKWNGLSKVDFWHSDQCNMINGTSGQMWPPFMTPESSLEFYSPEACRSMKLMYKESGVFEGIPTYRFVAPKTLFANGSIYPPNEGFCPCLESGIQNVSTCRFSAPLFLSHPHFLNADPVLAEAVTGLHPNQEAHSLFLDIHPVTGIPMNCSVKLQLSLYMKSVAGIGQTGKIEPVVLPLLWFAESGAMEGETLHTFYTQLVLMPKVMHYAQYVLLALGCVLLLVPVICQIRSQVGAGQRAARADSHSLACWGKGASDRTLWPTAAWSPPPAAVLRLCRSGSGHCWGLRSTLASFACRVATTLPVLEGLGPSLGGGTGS

[4] = 4 hours, PALM prepared with the peptide 32 μg/ml, HDL 19 μg/ml, average (n = 4) ± SEM
[5] = complex of the peptide with DOPC, C16PTX/PL 0
[6] = complex of the peptide with POPC, C16PTX/PL 0
[7] = complex of the peptide with POPC, C16PTX/PL 0.1
[8] = complex of the peptide with DOPC, C16PTX/PL 0.1

Molecule	Un-induced DiI Uptake (SR-BI; [4]) [pmol/µg/mL]	Increase Over Un-induced (DiI uptake, BHK(SR-BI) cells) [3] [%]	Induced DiI Uptake (pmol/ug/ml), BHK(SR-BI) cells induced for human SR-BI, 4 h [3] [pmol/µg/mL]	also measured
HDL: high density lipoprotein, human, labeled with DiI (Kalen Biomedical) [reference compound]	0.13 ± 0.02			Induced DiI Uptake (SR-BI; SR-BI induced (10 nM mifepristone) BHK(SR-BI) cells, 4 hours, PALM prepared with the peptide 32 μg/ml, HDL 19 μg/ml, average (n = 4) ± SEM): 0.86 ± 0.03 pmol/µg/mL; Increase Over Un-induced (SR-BI; induced vs un-induced DiI uptake): 561%
DVFQKL{AIB}ELFNQL{AIB}EKWKQV (DVFQKL[Aib]ELFNQL[Aib]EKWKQV) [SEQ ID NO: 35]	0.35 ± 0.01			
DiI-labeled human HDL (Kalen Biomedical) (from UniProt P02647 25-267)				Increase Over Un-induced (DiI uptake, BHK(SR-BI) cells) [1]: 561%; Induced DiI Uptake (pmol/ug/ml), BHK(SR-BI) cells induced for human SR-BI, 4 h [1]: 0.86 pmol/µg/mL
DV{AIB}QKLFELFNQLLEKWKQV (DV[Aib]QKLFELFNQLLEKWKQV) [SEQ ID NO: 27]	0.34 ± 0.01			Stability of Peptide/Phospholipid Complexes by Visual Inspection [2, 5]: Turbid; Stability of Peptide/Phospholipid Complexes by Visual Inspection [2, 6]: Clear (A visually clear preparation indicated any nanoparticles that had formed were less than approximately 40 nm diameter); Stability of Peptide/Phospholipid Complexes by Visual Inspection [2, 7]: Turbid
DVFQ{AIB}LKELFNQLLEKWKQV (DVFQ[Aib]LKELFNQLLEKWKQV) [SEQ ID NO: 3]	0.16 ± 0.01			
DV{AIB}QKFLELFNQLLEKWKQV (DV[Aib]QKFLELFNQLLEKWKQV) [SEQ ID NO: 32]	0.28 ± 0.02			Stability of Peptide/Phospholipid Complexes by Visual Inspection [2, 5]: Turbid; Stability of Peptide/Phospholipid Complexes by Visual Inspection [2, 8]: Turbid; Stability of Peptide/Phospholipid Complexes by Visual Inspection [2, 6]: Clear (A visually clear preparation indicated any nanoparticles that had formed were less than approximately 40 nm diameter); Stability of Peptide/Phospholipid Complexes by Visual Inspection [2, 7]: Turbid
DVFQ{AIB}LKELLNQLLEKFKQV (DVFQ[Aib]LKELLNQLLEKFKQV) [SEQ ID NO: 5]	0.54 ± 0.03			
DVFQKLVELFNQLLEKWKQV [SEQ ID NO: 26]	0.49 ± 0.04			Stability of Peptide/Phospholipid Complexes by Visual Inspection [2, 6]: Clear (A visually clear preparation indicated any nanoparticles that had formed were less than approximately 40 nm diameter); Stability of Peptide/Phospholipid Complexes by Visual Inspection [2, 7]: Turbid
DVFQKL{AIB}ELFNQLLEKWKQV (DVFQKL[Aib]ELFNQLLEKWKQV) [SEQ ID NO: 25]	0.24 ± 0.01			Stability of Peptide/Phospholipid Complexes by Visual Inspection [2, 5]: Clear (A visually clear preparation indicated any nanoparticles that had formed were less than approximately 40 nm diameter); Stability of Peptide/Phospholipid Complexes by Visual Inspection [2, 8]: Clear (A visually clear preparation indicated any nanoparticles that had formed were less than approximately 40 nm diameter); Stability of Peptide/Phospholipid Complexes by Visual Inspection [2, 6]: Clear (A visually clear preparation indicated any nanoparticles that had formed were less than approximately 40 nm diameter); Stability of Peptide/Phospholipid Complexes by Visual Inspection [2, 7]: Clear (A visually clear preparation indicated any nanoparticles that had formed were less than approximately 40 nm diameter)
DVFQKL[Aib]ELFNQL[Aib]EKWKQV (also: formulated as DiI-labeled peptide amphiphile lipid micelle with POPC and egg sphingomyelin) [DiI-labeled PALM prepared with the peptide of SEQ ID NO: 35]		264	1.26	
DV[Aib]QKLFELFNQLLEKWKQV (also: formulated as DiI-labeled peptide amphiphile lipid micelle with POPC and egg sphingomyelin) [DiI-labeled PALM prepared with the peptide of SEQ ID NO: 27]		90	0.66	
DVFQ[Aib]LKELFNQLLEKWKQV (also: formulated in a micelle with POPC, egg sphingomyelin and DiI) [DiI-labeled PALM prepared with the peptide of SEQ ID NO: 3]		88	0.29	
DV[Aib]QKFLELFNQLLEKWKQV (also: formulated as DiI-labeled peptide amphiphile lipid micelle with POPC and egg sphingomyelin) [DiI-labeled PALM prepared with the peptide of SEQ ID NO: 32]		221	0.9	
DVFQKLVELFNQLLEKWKQV (also: peptide amphiphile lipid micelle with POPC, egg sphingomyelin, DiI) [DiI-labeled PALM prepared with the peptide of SEQ ID NO: 26]		65	0.81	
DVFQKL[Aib]ELFNQLLEKWKQV (also: formulated as DiI-labeled peptide amphiphile lipid micelle with POPC and egg sphingomyelin) [DiI-labeled PALM prepared with the peptide of SEQ ID NO: 25]		245	0.83	
DVFQ[Aib]LKELLNQLLEKFKQV (also: formulated as DiI-labeled peptide amphiphile lipid micelle with POPC and egg sphingomyelin) [DiI-labeled PALM prepared with the peptide of SEQ ID NO: 5]		73	0.93	
